Results taken from publication PMC2621267, “The Influence of Catalysis on Mad2 Activation Dynamics” (PLoS Biology, 2009).
Ends that are not written are not given here. * marks the point of attachment. Biotin = O=C1N[C@H]2[C@H](CS[C@H]2CCCCC(=O)*)N1

Key:
Settings in all cases: both partners purified
[1] = biological target: T1, Alexa Fluor 488-labelled Mad2^F141A (UniProt Q13257 1-205, F141A, Alexa 488 C5 maleimide, covalent label (residue not stated)); assay: real-time confocal fluorescence in a flow chamber, signal in solution; same chamber with surface-held biotin-Cdc20 111-138; loss of Alexa-Mad2 fluorescence from solution followed; parameters of the curves laid over the data, [Cdc20T] = 0.9 uM
T1 construct: Mad2, full length, Phe141 replaced by Ala; monomeric O-Mad2 after labelling; Labelled form of m2; also called Alexa-Mad2^F141A; Alexa-488-Mad2^F141A; source: purified as described [14], labelled with Alexa 488 C5 maleimide, separated from free dye on Superdex-75
T1 sequence (Q13257 whole entry F141A): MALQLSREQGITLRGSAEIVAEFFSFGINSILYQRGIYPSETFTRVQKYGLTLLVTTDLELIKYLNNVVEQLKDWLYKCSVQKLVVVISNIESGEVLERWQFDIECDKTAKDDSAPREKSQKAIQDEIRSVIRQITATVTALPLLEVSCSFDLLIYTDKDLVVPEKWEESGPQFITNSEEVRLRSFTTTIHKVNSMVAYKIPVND

[2] = biological target: T1, Alexa Fluor 488-labelled Mad2^F141A; assay: real-time confocal fluorescence on a surface in a flow chamber; biotin-Cdc20 111-138 (~1 uM) held on a neutravidin-coated chamber surface; Alexa-488-Mad2 injected at 1-8 uM in PBS; fluorescence on the surface followed; constants from a global fit of rate equations
Full-length Mad2^wt = biological target: T2, Full-length Mad2^wt (UniProt Q13257 1-205); assay: pull-down; GST-Cdc20 111-138 (1 uM) immobilised on GSH-agarose beads; 1 uM Mad2 for 24 h at room temperature, or 2 uM Mad2 as a time course; SDS-PAGE and densitometry
T2 construct: Mad2, wild type, full length; purified as a monomer in the open (O-Mad2) conformation; Unlabelled form; also called wild-type Mad2; O-Mad2; source: purified as described [14], final size-exclusion chromatography on Superdex-75 in PBS
T2 sequence (Q13257 whole entry): as the sequence (Q13257 whole entry F141A) above, with A141F counted along it

Full-length Mad2^F141A = biological target: T3, Full-length Mad2^F141A (UniProt Q13257 1-205, F141A); assay: as above
T3 construct: Mad2, full length, Phe141 replaced by Ala; purified as a monomer in the open (O-Mad2) conformation; Unlabelled form; source: purified as described [14], final size-exclusion chromatography on Superdex-75 in PBS
T3 sequence (Q13257 whole entry F141A): as the sequence (Q13257 whole entry F141A) above

Kd [1] [nM] | kon [1] [M⁻¹ s⁻¹] | Kd [2] [nM] | koff [2] [s⁻¹] | kon [2] [M⁻¹ s⁻¹] | binding result (Full-length Mad2^wt) | binding result (Full-length Mad2^F141A) | Binder
240 | 27 | 100 | 4.83e-06 | 48.3 |  |  | Biotin-EHQKAWALNLNGFDVEEAKILRLSGKPQ (peptide, UniProt Q12834 111-138, looked up, Cdc20, residues 111-138; Held on the neutravidin-coated surface of the flow chamber through its biotin; also called biotinylated Cdc20 peptide; biotin-Cdc20 peptide^111-138; source: synthetic peptide) [synthetic biotin-Cdc20^111-138]
 |  |  |  |  | binds | binds | EHQKAWALNLNGFDVEEAKILRLSGKPQ (domain or fragment, UniProt Q12834 111-138, looked up, Immobilised on GSH-agarose beads) [GST-Cdc20^111-138]
